Tests used:
[1] = test system: aCcr2 (Saccharolobus islandicus REY15A); experiment: EMSA
[2] = test system: aCcr1 (Saccharolobus islandicus REY15A); experiment: EMSA
[3] = test system: aCcr3 (Saccharolobus islandicus REY15A); experiment: EMSA
SEC = target: the molecule itself; experiment: SEC

With PcdvA the Kd [1] was 245 nM, the Kd [2] was 93.5 nM and the Kd [3] was 36 nM.

B1: aCcr1 (natural protein, Saccharolobus islandicus REY15A, UniProt F0NBE5 1-58, looked up)
chain: MRVVTFKVEEDLLELLDRYAIKYGLNRSEAIRKAIEKMVRDELSKERVPVARVEKIKL
In the case of B1, the “stoichiometry N” value (SEC) is reported as 2.

MKIITVKLPEQFLEAIDELVNTGRYGSRSEVIRAAIGDFIRKELWVTTEE (natural protein, Saccharolobus islandicus REY15A, UniProt F0NFD7 1-50, looked up) [aCcr3] was tested, and the “stoichiometry N” value (SEC) was 2.

MRKVVSVRLKEDVLRDVDIYTRKLGLNSRTEFIKQAIEFYIKSKS (natural protein, Saccharolobus islandicus REY15A, UniProt F0NI75 1-45, looked up) [SiRe_1373] was tested, and the “stoichiometry N” value (SEC) was 2.

B2: SiRe_0131 (natural protein, Saccharolobus islandicus REY15A, UniProt F0NG80 1-74, looked up)
chain: MEKIVKVNDTTYILEDERSVVITFKLEENILSMVDEIVKKLGYDYRSDFIRDAIEKYINYLKSSSNNSKMNINE
B2 was tested, and the “stoichiometry N” value (SEC) was 2.

B3: aCcr2 (natural protein, Saccharolobus islandicus REY15A, UniProt F0NEU4 1-57, looked up)
chain: MVRVITFKAEEELLVKLDLFALNSRMSRSEIIRMAIEKYLEEAAGGIRTRDRRLSRQ
In the case of B3, the “stoichiometry N” value (SEC) is reported as 2.

Source: article doi:10.1101/2025.10.16.681758 (bioRxiv, 2025)
